Experimental data as given in patent CN111909265A (INST MILITARY MEDICINE ACADEMY MILITARY SCIENCES PLA, dated 2020).

Assays:
[1] = target: T1, 破伤风毒素重链C端结构域 (TeNT-HC, GenBank:AF154828) (破伤风梭菌 (C.tetani), UniProt P04958 865-1315); experiment: ELISA, coated TeNT-HC 1 μg/mL, T9-6 titrated 1:3 from 3.3 μg/mL
T1 sequence: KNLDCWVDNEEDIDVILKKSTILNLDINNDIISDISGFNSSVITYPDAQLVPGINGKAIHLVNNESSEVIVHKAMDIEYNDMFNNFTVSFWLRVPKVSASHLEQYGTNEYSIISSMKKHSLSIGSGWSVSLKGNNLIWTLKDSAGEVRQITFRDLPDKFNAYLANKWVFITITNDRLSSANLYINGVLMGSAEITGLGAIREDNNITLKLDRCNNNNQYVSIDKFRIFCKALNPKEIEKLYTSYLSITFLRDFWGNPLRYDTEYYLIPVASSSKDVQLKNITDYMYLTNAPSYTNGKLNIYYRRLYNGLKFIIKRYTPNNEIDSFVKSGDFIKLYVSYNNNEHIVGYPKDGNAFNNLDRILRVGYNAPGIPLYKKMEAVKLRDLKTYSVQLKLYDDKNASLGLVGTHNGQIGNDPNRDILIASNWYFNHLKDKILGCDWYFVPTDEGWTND

[2] = target: T2, 破伤风类毒素 (TT) (破伤风梭菌 (C.tetani), UniProt P04958 2-1315)
[3] = target: T2, 破伤风类毒素 (TT); experiment: ELISA, coated TT 1 μg/mL, T9-6 titrated 1:3 from 3.3 μg/mL

T2 sequence (P04958 2-457 limits assumed): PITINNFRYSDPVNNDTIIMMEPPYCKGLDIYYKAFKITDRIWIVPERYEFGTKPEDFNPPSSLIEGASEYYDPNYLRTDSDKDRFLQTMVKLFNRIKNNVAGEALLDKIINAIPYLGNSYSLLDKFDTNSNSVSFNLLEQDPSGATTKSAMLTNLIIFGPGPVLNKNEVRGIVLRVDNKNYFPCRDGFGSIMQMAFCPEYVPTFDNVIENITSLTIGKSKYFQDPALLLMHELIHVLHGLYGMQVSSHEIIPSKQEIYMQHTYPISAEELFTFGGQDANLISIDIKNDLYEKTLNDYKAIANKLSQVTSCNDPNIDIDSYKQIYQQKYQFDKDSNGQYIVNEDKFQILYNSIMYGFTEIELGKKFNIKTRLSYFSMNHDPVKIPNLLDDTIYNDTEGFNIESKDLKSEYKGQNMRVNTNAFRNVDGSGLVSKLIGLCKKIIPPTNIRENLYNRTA

B1: T9-6 人源抗破伤风毒素单克隆抗体 (antibody, V domains shown)
VH: QLVQSGGGLIQPGGSLRLSCAASGSGFSVSSNYMTWVRQAPGKGLEWVAVIYRNGSTNYADSVRGRFTISRDNSKNTVFVQMNRLRVEDTAVYYCARDFVVVVSTGPEVSYYSYGMDVWGQGTMVTGSS
VL: DIVMTQSPSSLSASVGDRVTITCRASQGISDYLSWYQQKPGKAPKRLIYGTSSLDSGVPSRFSGSGSGTEFTLTISSLQPEDVATYYCLQHHGFPRTFGQGTKVDIKR
EC50 [1]: 3.45 ng/mL | Kd [2]: 397 pM | EC50 [3]: 6.18 ng/mL
